Measurements reported in article PMC4027171.

Target: human EME2 (His-EME2) (human)
Test: co-purification of co-expressed subunits

Chain of human EME2 (His-EME2) (human) (A4GXA9 whole entry): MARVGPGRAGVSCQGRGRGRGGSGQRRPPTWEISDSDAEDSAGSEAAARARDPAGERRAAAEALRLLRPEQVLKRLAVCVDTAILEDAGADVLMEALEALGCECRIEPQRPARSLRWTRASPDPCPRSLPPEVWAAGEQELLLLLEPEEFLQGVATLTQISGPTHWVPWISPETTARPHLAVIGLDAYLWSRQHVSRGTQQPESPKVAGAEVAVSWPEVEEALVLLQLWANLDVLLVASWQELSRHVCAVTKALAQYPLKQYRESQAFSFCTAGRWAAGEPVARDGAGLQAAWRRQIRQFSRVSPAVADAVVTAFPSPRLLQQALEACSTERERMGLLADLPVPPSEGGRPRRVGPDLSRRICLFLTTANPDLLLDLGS

stoichiometry N: 1
B1: human MUS81 (enzyme)
chain: MAAPVRLGRKRPLPACPNPLFVRWLTEWRDEATRSRRRTRFVFQKALRSLRRYPLPLRSGKEAKILQHFGDGLCRMLDERLQRHRTSGGDHAPDSPSGENSPAPQGRLAEVQDSSMPVPAQPKAGGSGSYWPARHSGARVILLVLYREHLNPNGHHFLTKEELLQRCAQKSPRVAPGSARPWPALRSLLHRNLVLRTHQPARYSLTPEGLELAQKLAESEGLSLLNVGIGPKEPPGEETAVPGAASAELASEAGVQQQPLELRPGEYRVLLCVDIGETRGGGHRPELLRELQRLHVTHTVRKLHVGDFVWVAQETNPRDPANPGELVLDHIVERKRLDDLCSSIIDGRFREQKFRLKRCGLERRVYLVEEHGSVHNLSLPESTLLQAVTNTQVIDGFFVKRTADIKESAAYLALLTRGLQRLYQGHTLRSRPWGTPGNPESGAMTSPNPLCSLLTFSDFNAGAIKNKAQSVREVFARQLMQVRGVSGEKAAALVDRYSTPASLLAAYDACATPKEQETLLSTIKCGRLQRNLGPALSRTLSQLYCSYGPLT
